In the nanobody polyreactivity screen of Harvey et al. (2022):

Assay: yeast display, Sf9 membrane polyspecificity reagent, FACS + sequencing; frameworks hold sequencing errors
How it was run: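 After 36–48 hours of galactose induction, yeast (Saccharomyces cerevisiae BJ5465) displaying a synthetic nanobody library were stained at 4 °C for 1 hour with 10% biotinylated, detergent-solubilized Sf9 membrane reagent. Streptavidin microbeads enriched the stained cells before FACS sorting into low and high (top ~1%) gates on anti-HA and streptavidin fluorescence. Each clone's polyreactivity label reflects its gate of origin.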

Sequence	polyreactivity (PSR sort gate)
QDQLVESGGGLVQAGGSLRLSCAASGSIFRKYVMGWYRQAPGKERELVAAISGSGGRTYYADSVKGRFTISRDNAKNTVYLQMNSLKPEDTAVYYSNAYPHAYTGSTREGDYWGQGTQVTVSS	high polyreactivity
QDQLVESGGGLVQAGGSLRLSCAASGSIFTFNTMGWYRQAPVKERELVATISSGGRTYYADSVKGRFTISRDNAKNTVYLQMNSLKPEDTSVYYCNKGYYGYTYVEYNYWGQGTQVTVSS	low polyreactivity
QDQLVESGGGLVQAGGSLRLSCAASGSIFVENAMGWYRQAPGKEREFVAAITRSGGSTYYADSVKGRFTISRDNAKNPVYLQMNSMKPEDTAVYYCAARIWDEQPAAGYYWGQGTQVTVSS	low polyreactivity
QDQLVESGGGLVQAGGSLRLSCAASGSIFWLYAMGWYRQAHGKERELVASITGGGSTNYADSVKGRFTISRDNAKNTVYLQMNSLKPEDTAVYYCAKRYYRTGRKRTGLDYWGQGTQVTVSS	high polyreactivity
QDQLVESGGGLVQAGGSLRLSCAASGSIFYYYAMGWYRQAPGKERELVASISRSGGSTFYADSVKGRFTISRDNAKNSVYLQMNRLKPEDTAVSYCATGWYYSPYNYWGQGTQVTVSS	high polyreactivity
QDQLVESGGGLVQAGGSLRLSCAASGSIFYYYVMGWYRQETGKEREFVAAISWGGDSTYYADSVKGRFTISRDNAKNTVYLQMNSLKTEDTAVYYCKADYPWSVLAYDYWGQGTQVTVSS	low polyreactivity
QDQLVESGGGLVQAGGSLRLSCAASGSISSTNAMGWYRQAPGKERELVATISWIGGSTYADSVKGRFTISRDNAKNTVYLQMNSLKPEDTAVYYCNRDWIFTKDYDYWGQGTQVTVSS	low polyreactivity
QDQLVESGGGLVQAGGSLRLSCAASGSMLVNNAMGCYRQAPGKERELVAASSKSTGRTYYADSVKGRFTISRDNAKNTVYLQMNSLKPVDTAVFYCYALTHPDKFVYWGQGTQVTVSS	high polyreactivity
QDQLVESGGGLVQAGGSLRLSCAASGSNFGPYAMGGYRHAPGKERELVARISGGGSTYYADSVKGRFTISRDNAKNTVYLQMNSLKPEDTAVYYCNVRNWAYWSHAIIYNYWGQGTLVTVSS	high polyreactivity
QDQLVESGGGLVQAGGSLRLSCAASGSNFPTNAMGWYRPAPGKERELVADITIRGGGTSYADSVKGRFTISRDNAKNTVYLHMNSLKPEDTAFYYCARSKSTELKRLLFDSWGQGTQVTVSS	low polyreactivity
QDQLVESGGGLVQAGGSLRLSCAASGSNLYRNAMGWSRQAPGKERELVAAITSRGGSTYADSVTGRFTISRDNAKNTVYLQMNSLKPEDTAVYYCAKGYLYRRPTVTHGYWGQGTQVTVSS	low polyreactivity
QDQLVESGGGLVQAGGSLRLSCAASGSTFAGNGMGWYRQAPGKERELVAGIDVTGGSTYYADSVKGRFTISRDNAKNTVYLQMNSLKPEDTAVYFCNARYVYHSSFAGFDYWGQGTQVTVSS	low polyreactivity
QDQLVESGGGLVQAGGSLRLSCAASGSTFAGYAMGWYRQAPGKERELVATITYSGGSTYYADSVKGRFTISRDNAKNTVYLQMNSLKPEDTAVYYCAKKASYWWGYEYWGQGTQVTVSS	low polyreactivity
QDQLVESGGGLVQAGGSLRLSCAASGSTFGNYAMGWYRQAPGKERELVAAITSGGTTNYADSVKGRFTISRDNAKNTVYLQMNSLKPEDTAVYYCNAVGTFVRYSTDGRDGVTYDYWGHGTQVTVSS	low polyreactivity
QDQLVESGGGLVQAGGSLRLSCAASGSTFIDNVMGWYRQPPGQERELVAAINSGGSTDYADSLKGRFTISRDNAKNTVYLLMNRLKPEDTAVYYCNAYHIVIYDYWGQGTQVTVSS	low polyreactivity
QDQLVESGGGLVQAGGSLRLSCAASGSTFQWYAMVWYRQAPGKERELVAAINKSGGTTYYADSVKGRFTISRDNAKNTVYLQMNRLKPEDTAVYYCATDNPVVYQPGNLDYWVQGTQVTVSS	low polyreactivity
QDQLVESGGGLVQAGGSLRLSCAASGSTFRGNAKGWYRQAPGKERELVAAITGSGGRRYYADSVKGRFTISRDYAKNTVYLQMNSLKPEDTAVYYCAAVYYGYRDRTDYGYWGQGTQVTVSS	high polyreactivity
QDQLVESGGGLVQAGGSLRLSCAASGSTFSDNTMGWYRQAPGKERELVAANTTIGGSTYYADSVKGRFTISRDNAKNTVSVQMISLKPEDTAVYYCAAVDFTSQYYDLYIYWGQGTQVTVSS	low polyreactivity
QDQLVESGGGLVQAGGSLRLSCAASGSTFTPNALGWYRQPPGKQRELVAAISTRGSSTYYADSVKGRFTISRDNAKNTVYLQMNRLKPEDTAVYSCAAPFKYGLSYGSWYGYCGQGTQVTVSS	high polyreactivity
QDQLVESGGGLVQAGGSLRLSCAASGSTFYIYAMGWNIQAPGKERELVAAISTTDGTTYYADSVKGRFTISRDNAKKTVYLQMNSLKPEDTAVYYCAAEWFGSVQPAYDYWGQVTQVTVSS	high polyreactivity
QDQLVESGGGLVQAGGSLRLSCAASGSTFYYNAMGLYRQAPGKEREVVARISRSGGSTYADSVKGRFTISRDNAKNTVYLQMNSLKPEDTAVYYCNADAYGTPEFTSYAVRYDYWGQGTQVTVSS	low polyreactivity
QDQLVESGGGLVQAGGSLRLSCAASGVTFVTYAMGGSRQAPGKERELVAAITTGGSTNYADSVKGRFTISRDNAKNTVYLQMNSLKPEDTAVYYCAAQRVSVLLFVRHDYWGQGTQVTVSS	low polyreactivity

Sequence	polyreactivity (PSR sort gate)
QDQLVESGGGLVQAGGSLRLSCAASGYTFKAYAMVWYRQAPGKERELVDAISRGGRTNYADSVKGRFTISRDNAKNTVYLQMNSLKPEDTAVYYCNTQRQLGVRFYDRSRQGDYWGQGTQVTVSS	high polyreactivity
QDQLVESGGGLVQAGGSLRLSCAASGYTFSYYAMGWYRQAPGKERELVAAITSTGSTYYADSVKGRFTISRDYAKNTVYLQMNILKPEDTAVYYCNVDDATVGPVDYWGQGTQVTVSS	low polyreactivity
QDQLVESGGGLVQAGGSLRLSCAASRLTFYVYAMGWYRQAPGKERELVAAISGRGGRTYYADSVKGRFTISRDNAKNTVYLQMNSLKPEDTAVYDCAPRYPRYRYVEYGYNYWGQGTQVTVSS	high polyreactivity
QDQLVESGGGLVQAGGSLRLSCAASVFIFYSYTRGWYRQAPGKERELVATISSNGGRTYYADSVKGRFTISRDNAKNTVYLQMNSLKPEDTAVYYCATDVPHGYYWSYGDYYCGQGTQVTVSS	low polyreactivity
QDQLVESGGGLVQAGGSLRLSCAASVSIFASYAMGRYRPAPGKERELVAAISSRGSRTYYADSVKGRFTISRDNAKNTVYLQMNRLKPQDTAVYYCAAYSPDYYNAEFGYWGQGTHVTVSS	high polyreactivity
QDQLVESGGGLVQAGGSLRLSCASSGFTIVYYAMGWYRQAPGKERELVADISSYGSTYADSVKGRFTISRDNAKNTVYLLMNSLKPEDTAVYYCAAEYIYQPHYGYYYWGQGTQVTVSS	high polyreactivity
QDQLVESGGGLVQAGGSLRLSCRASGFTFTHYAMGWSRKAPGKERELVAAIDRSGDSTYYADSVKGRFTISRDNAKNTVYLQMNSLKPEDTAVYYSAADLFDSLIWVYWTYVARFDYWGQGTQVTVSS	low polyreactivity
QDQLVESGGGLVQAGGSLRLSCSASGSIVGLYAMGWYRQAPGKERELVAAITASDGYTYYADSVKGRFTNSRDNAKNTVYLQMNSLKPEDTAVYYCNADAYSGYFLFDYWGQGTQVNVSS	low polyreactivity
QDQLVESGGGLVQAGGSLRLSCSAYGSILKNNAMGLYIQSPGQERELVAAISSDGSTNYADSVKGRFRISRDNAKNTVYLQMNSLKPEDTAVYYCAAHDNGAWVRMDYWGQGTQVTVSS	low polyreactivity
QDQLVESGGGLVQAGGSLRLSFAASGATFKRYAMGWYRQAPGKERELVATINSGTSTNYADSVKGRFTISRDNAKNTVYLQMNSLKPEDTAVYYCAKTFRRSVGGYGYDYWGQGTQVTVSS	low polyreactivity
QDQLVESGGGLVQAGGSLRLSSAASGFTFAHYARGWYRQAPGKERELVAAISGSGSSTYYADSVKGRFTISRDNAKNTVYLQMNSLKPEDTAVYYCNVRWYFLYDYWGQGTQVTVSS	low polyreactivity
QDQLVESGGGLVQAGGSLRLSSAASGRIFKWNAMGWYRPAPGTERQLVAAIRWSGTSTYADSVKGRFTISRDNAKNTVYLHMNSLKPEDTAVYYCAAQDVSAPGWWLHYWGQGTQVTVSS	low polyreactivity
QDQLVESGGGLVQAGGSLRLSSAGSGSIFFSYAMGWYRQAPGKEREFVAAINSDDASTYADSVKGRFTISRDNAKNTVYLQMNSLKPEDTAVYYCAASFLWSWYDYWGQGTQVTVSS	low polyreactivity
QDQLVESGGGLVQAGGSLRLTCAASGFTIWYYAMGWYRQAPGKERELVAAISSVSSTKYADSVKGRFTISRDNAKNTVYFQMNSLKPEDTAVYYCAADIVRYWRHGFGWRRYDYWGQGTQVTVSS	high polyreactivity
QDQLVESGGGLVQAGGSLRRSCAASGFTFFIYAMGWYRQAPGKEREFVAAITGSGGSTYYADSVKGRFTISRDNAKNTVYLQMNRLKPEDTAVYYCNKLSYGRSGYWGQGTQVTVSS	high polyreactivity
QDQLVESGGGLVQAGGSLSLSCAASGSIIPNYAMGWYRQAPGKERELVAAISSSGGRTYYADSVKGRFTISRDNAKNTVYLQMNCLKPEDTAVYYCAADTYTSAQHEKYDYWGQGTQVTVSS	low polyreactivity
QDQLVESGGGLVQAGGTLRLRCAATGSTVYPTYAMGWYRQAPGKEWELVATITGSGGYTYYADSVKGRFTISRDNAKNTVYLQINSLKPEDTAVYYCAADRWYSRYTRYGYRGQGTQVTVSS	low polyreactivity
QDQLVESGGGLVQARGSLRLICSASGFIISDYAMGWSRQAPGEERELVAVITWRSGSTYYADSVKGRFTISRDNAKNTVYLQMNSLKPEDTAVYYCAARYYRNYSQGRRLGYNYWGQGTQVTVSS	high polyreactivity
QDQLVESGGGLVQAVGSLRLSCAASGRIFVYNAMGGYRQAPGKEREFVATITSSGGRTYYADSVKGRFTISRDNSKNTVYLQMNSLKPEDTAVYYCAARPQNNGRNPVYRYNYWGQGTQVTVSS	high polyreactivity
QDQLVESGGGLVQEGGSLRLICGASGFIFPTNAMGWYRPAPGKERELVAAISRSGGTTNYADSVKGRFTISRDNAKNTVYLQRNSLKPEDTAVYYCNRGWATWHGPDDYWGQGTQVTVSS	high polyreactivity
QDQLVESGGGLVQEGGSLRLSCAASGRTFISKVMGWYRQAPGKERELVAAISGSSGSTRYADSVKGRFTISRDYAKNTVYLQMNSLKPEDTAVYYCAPRAPWPKWGYYYWGLGTQVTVSS	high polyreactivity
